Source: IntAct's records for PubMed 18423202

B1: Regulator of nonsense transcripts 1 (Homo sapiens), Q92900-2 (parent)
chain: MSVEAYGPSSQTLTFLDTEEAELLGADTQGSEFEFTDFTLPSQTQTPPGGPGGPGGGGAGGPGGAGAGAAAGQLDAQVGPEGILQNGAVDDSVAKTSQLLAELNFEEDEEDTYYTKDLPIHACSYCGIHDPACVVYCNTSKKWFCNGRGNTSGSHIVNHLVRAKCKEVTLHKDGPLGETVLECYNCGCRNVFLLGFIPAKADSVVVLLCRQPCASQSSLKDINWDSSQWQPLIQDRCFLSWLVKIPSEQEQLRARQITAQQINKLEELWKENPSATLEDLEKPGVDEEPQHVLLRYEDAYQYQNIFGPLVKLEADYDKKLKESQTQDNITVRWDLGLNKKRIAYFTLPKTDSDMRLMQGDEICLRYKGDLAPLWKGIGHVIKVPDNYGDEIAIELRSSVGAPVEVTHNFQVDFVWKSTSFDRMQSALKTFAVDETSVSGYIYHKLLGHEVEDVIIKCQLPKRFTAQGLPDLNHSQVYAVKTVLQRPLSLIQGPPGTGKTVTSATIVYHLARQGNGPVLVCAPSNIAVDQLTEKIHQTGLKVVRLCAKSREAIDSPVSFLALHNQIRNMDSMPELQKLQQLKDETGELSSADEKRYRALKRTAERELLMNADVICCTCVGAGDPRLAKMQFRSILIDESTQATEPECMVPVVLGAKQLILVGDHCQLGPVVMCKKAAKAGLSQSLFERLVVLGIRPIRLQVQYRMHPALSAFPSNIFYEGSLQNGVTAADRVKKGFDFQWPQPDKPMFFYVTQGQEEIASSGTSYLNRTEAANVEKITTKLLKAGAKPDQIGIITPYEGQRSYLVQYMQFSGSLHTKLYQEVEIASVDAFQGREKDFIILSCVRANEHQGIGFLNDPRRLNVALTRARYGVIIVGNPKALSKQPLWNHLLNYYKEQKVLVEGPLNNLRESLMQFSKPRKLVNTINPGARFMTTAMYDAREAIIPGSVYDRSSQGRPSSMYFQTHDQIGMISAGPSHVAAMNIPIPFNLVMPPMPPPGYFGQANGPAAGRGTPKGKTGRGGRQKNRFGLPGPSQTNLPNSQASQDVASQPFSQGALTQGYISMSQPSQMSQPGLSQPELSQDSYLGDEFKSQIDVALSQDSTYQGERAYQHGGVTGLSQY

Variants of: B1
Details: with eif3a_human EIF3A

| Variant | effect of a mutation on the interaction |
| --- | --- |
| G495R;G497E | increasing interaction |

Variants of: B1
Details: with eif3a_human EIF3A
Remark: another data set of the same source

| Variant | effect of a mutation on the interaction |
| --- | --- |
| G495R;G497E | increasing interaction |
